Assay results: article PMC4139307, “Transforming Growth Factor-β1 Signaling Represses Testicular Steroidogenesis through Cross-Talk with Orphan Nuclear Receptor Nur77”

Target: GST-Nur77 (UniProt P12813 1-601)
Assay: EMSA; not given in material (EMSA according to previously described procedures, ref 34)
Details: protein: recombinant; tags: GST; label: 32P (alpha-32P dCTP labeling); annealed to complementary oligonucleotide

GST-Nur77, sequence (P12813 whole entry): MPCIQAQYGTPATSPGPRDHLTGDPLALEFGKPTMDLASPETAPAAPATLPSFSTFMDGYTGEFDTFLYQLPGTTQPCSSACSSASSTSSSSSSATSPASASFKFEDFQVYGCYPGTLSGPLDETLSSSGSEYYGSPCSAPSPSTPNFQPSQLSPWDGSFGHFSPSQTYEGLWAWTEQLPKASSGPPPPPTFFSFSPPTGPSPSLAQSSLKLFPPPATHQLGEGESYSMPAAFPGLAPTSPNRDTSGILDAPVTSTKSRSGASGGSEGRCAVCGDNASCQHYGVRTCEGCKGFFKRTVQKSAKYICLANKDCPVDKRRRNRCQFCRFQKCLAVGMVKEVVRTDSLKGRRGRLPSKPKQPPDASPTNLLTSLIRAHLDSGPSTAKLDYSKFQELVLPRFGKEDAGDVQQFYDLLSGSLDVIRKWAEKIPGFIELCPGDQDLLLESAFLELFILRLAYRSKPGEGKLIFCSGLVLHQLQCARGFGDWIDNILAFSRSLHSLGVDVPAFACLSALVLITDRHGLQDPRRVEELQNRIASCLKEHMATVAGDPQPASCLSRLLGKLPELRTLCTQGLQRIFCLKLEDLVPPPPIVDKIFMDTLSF

B1: NBRE oligonucleotide (dsDNA)
DNA 1: GGGGCTCGTGCGAAAAGGTCAAGCGCTA
DNA 2: TAGCGCTTGACCTTTTCGCACGAGCCCC
- binding result: binds
